Laboratory results published in US6500647 (MOGAM BIOTECHNOLOGY RESEARCH INSTITUTE, dated 2002).

Columns and labels:
[1] = target: T1, PTH receptor of UMR106 cell line (rat osteoblast-like osteosarcoma cell line) (rat, UniProt P25961 27-591); assay: cell-based or functional assay
T1 sequence (looked up): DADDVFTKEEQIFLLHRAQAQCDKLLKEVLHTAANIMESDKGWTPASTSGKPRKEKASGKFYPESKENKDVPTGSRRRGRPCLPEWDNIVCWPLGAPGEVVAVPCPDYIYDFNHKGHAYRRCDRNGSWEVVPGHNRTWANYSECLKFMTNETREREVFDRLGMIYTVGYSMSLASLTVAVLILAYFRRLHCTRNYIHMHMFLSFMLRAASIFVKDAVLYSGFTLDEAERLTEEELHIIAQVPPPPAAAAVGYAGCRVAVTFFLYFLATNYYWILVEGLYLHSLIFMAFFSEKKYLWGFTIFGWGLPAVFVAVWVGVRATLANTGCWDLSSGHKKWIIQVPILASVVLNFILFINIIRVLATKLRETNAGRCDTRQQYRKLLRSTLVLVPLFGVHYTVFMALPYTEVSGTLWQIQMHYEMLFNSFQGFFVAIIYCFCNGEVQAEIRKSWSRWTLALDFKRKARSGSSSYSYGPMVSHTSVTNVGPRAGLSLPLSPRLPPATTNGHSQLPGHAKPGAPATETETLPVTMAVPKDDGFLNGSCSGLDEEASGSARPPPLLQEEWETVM

[2] = target: T1, PTH receptor of UMR106 cell line (rat …); assay: competition with 125I-(Nle8,18Tyr34)-bPTH (1-34) for binding to UMR106 cells, 15 C, 4 h
Experimental: A binding test to PTH receptor was carried out as followings (see: Chohei Shigeno et al., The Journal of Biological Chemistry, 263(8):3864–3871(1988)): 10^5 UMR106 cells per well was added into a 24 well-plate and cultured for 4 to 8 days. Medium was exchanged every two days and it was exchanged daily at 3 days before the test. On the other hand, in order to prepare (Nle^{8,18}Tyr^34)-bovine PTH (1–34)-NH_2(bPTH (1–34)) (see: Gino V. Segre et al., JBC, 254(15) :6980–6986(1979)) which was labelled with a radioactive isotope, ^125I at a tyrosine residue of carboxy-terminus, bPTH (1–34) was iodinated with Na^125I using chloramine T (Sigma Chemical Co., USA) as a catalyst. […]
Binding affinity of PTH to its receptor was determined by comparing competitive inhibition of rhPTH (1–84) and shPTH (1–84) against ligand binding to the receptor by using the ^125I-labelled (Nle^{8,18}Tyr^34)-bPTH (1–34) as a ligand. […] The solution obtained after extraction was mixed with the solution obtained after washing with 0.5 ml of the binding buffer and counted for its radioactivity employing γ-counter.
Specific binding was determined by subtracting value of nonspecific binding measured by using each competitive hormone of 1 mM from value of binding radioactivity measured above.

B1: synthetic human PTH (shPTH (1-84), Sigma Chemical Co., USA) (ligand, UniProt P01270 32-115, looked up)
chain: SVSEIQLMHNLGKHLNSMERVEWLRKKLQDVHNFVALGAPLAPRDAGSQRPRKKEDNVLVESHEKSLGEADKADVNVLTKAKSQ
notes: mature; Control hormone, bought; also called synthetic PTH
EC50 (concentration of hormone required for stimulating production of intracellular cAMP to reach an increase of 50%) [1]: 1.9 nM
IC50 [2]: 18.6 nM

B2: human recombinant PTH (rhPTH (1-84)) (ligand, UniProt P01270 32-115, looked up)
chain: SVSEIQLMHNLGKHLNSMERVEWLRKKLQDVHNFVALGAPLAPRDAGSQRPRKKEDNVLVESHEKSLGEADKADVNVLTKAKSQ
notes: mature; also called recombinant human PTH; purified human PTH
EC50 (concentration of hormone required for stimulating production of intracellular cAMP to reach an increase of 50%) [1]: 1.3 nM
IC50 [2]: 17.3 nM
